B1: HC19 IgG (humanized constant domains), RBS-directed (antibody, V domains shown)
VH: QVQLKESGPGLVAPSQSLSITCTVSGFLLISNGVHWVRQPPGKGLEWLGVIWAGGNTNYNSALMSRVSISKDNSKSQVFLKMKSLQTDDTAMYYCARDFYDYDVFYYAMDYWGQGTSVTVSS
VL: QAVVTQESALTTSPGETVTLTCRSSTGAVTTSNYANWVQEKPDHLFTGLIGGTNNRAPGVPARFSGSLIGDKAALTITGAQTEDEAIYFCALWYSNHWVFGGGTKLTVL
notes: source: 293F suspension cells, transient, purified from supernatants (Protein G); copies: 2 + 2
B2: 8H10 IgG (humanized constant domains), directed to the HA trimer interface (antibody, V domains shown)
VH: EVQLQESGEGLVKPGGSLKLSCAASGFTFSNYDMSWVRQTPEKRLEWVAYISSGGDYIYYADTVKGRFTISRDNARNTLYLQMSSLKSEDTAMYYCTRNYYYGSLPVWFAYWGQGTLVTVSG
VL: QAVVTQESALTTSPGETVTLTCRSSTGAVTTSNYANWVQEKPDHLFTGLIGGTNNRAPGVPARFSGSLIGDKAALTITGAQTEDEAIYFCALWYSNHSWVFGGGTKLTVL
notes: as for B1
B3: HC45 IgG (humanized constant domains), directed to the vestigial esterase domain (antibody, V domains shown)
VH: QVQLQQPGAELVRPGASVKLSCKASGYTLTTYWMNWFKQRPDQGLEWIGRIDPYDSETHYNQKFKDKAILTVDRSSSTAYMQLSSLTSEDSAVYYCTRFLQITTIIYGMDYWGQGTSVTVSS
VL: DVVMTQTPLSLPVSLGDQASISCRSSQTLVHSNGNTYLHWYLQKPGQSPKLLIYKVSNRFSGVPDRFSGSGSGTDFTLKISRVEAEDLGVYFCSQNTHVPYTFGGGTKLEIK
notes: as for B1
B4: FI6 IgG, stem-directed (antibody, V domains shown)
VH: QVQLVESGGGVVQPGRSLRLSCAASGFTFSTYAMHWVRQAPGKGLEWVAVISYDANYKYYADSVKGRFTISRDNSKNTLYLQMNSLRAEDTAVYYCAKDSQLRSLLYFEWLSQGYFDYWGQGTLVTVSS
VL: not shown
notes: as for B1

biological target: wild-type H3 A/Hong Kong/1/1968 hemagglutinin, recombinant full-length soluble ectodomain (Influenza A virus A/Hong Kong/1/1968 …, UniProt Q91MA7); experiment: ELISA; conditions: both partners purified

Binder	binding result
B1	binds
B2	binds
B3	binds
B4	binds

— paper PMC8528956 (Frontiers in Immunology, 2021)
